In patent US20160102316A1, “STRESS TOLERANT PLANTS” (CONSEJO SUPERIOR DE INVESTIGACIONES CIENTIFICAS(CSIC), priority 2013, published 2016):

T1: YFPN:PYL8 (Arabidopsis, UniProt Q9FGM1 1-188)
T1 construct: BiFC construct expressed transiently in N. benthamiana leaves; also called PYL8 fusion with the N-portion of YFP; not shown: N-portion of the yellow fluorescent protein (YFP)
T1 sequence (looked up): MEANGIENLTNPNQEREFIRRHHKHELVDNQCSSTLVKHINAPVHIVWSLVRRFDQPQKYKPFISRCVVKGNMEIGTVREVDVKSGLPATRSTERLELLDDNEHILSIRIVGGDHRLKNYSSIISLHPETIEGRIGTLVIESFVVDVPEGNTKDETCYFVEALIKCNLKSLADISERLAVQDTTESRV

T2: full length PYL8 (Arabidopsis, UniProt Q9FGM1 1-188)
T2 construct: Gal4-domain fusion in the yeast two-hybrid assays; also called ABA receptor PYL8
T2 sequence (looked up): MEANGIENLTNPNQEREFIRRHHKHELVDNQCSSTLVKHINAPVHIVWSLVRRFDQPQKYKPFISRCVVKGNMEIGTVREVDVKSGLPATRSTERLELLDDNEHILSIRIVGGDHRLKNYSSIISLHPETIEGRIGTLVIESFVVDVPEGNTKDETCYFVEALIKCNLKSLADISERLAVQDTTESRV

T3: DET1 (Arabidopsis, UniProt P48732 1-543)
T3 construct: Endogenous protein in the TAP; also called DEETIOLATED 1
T3 sequence (looked up): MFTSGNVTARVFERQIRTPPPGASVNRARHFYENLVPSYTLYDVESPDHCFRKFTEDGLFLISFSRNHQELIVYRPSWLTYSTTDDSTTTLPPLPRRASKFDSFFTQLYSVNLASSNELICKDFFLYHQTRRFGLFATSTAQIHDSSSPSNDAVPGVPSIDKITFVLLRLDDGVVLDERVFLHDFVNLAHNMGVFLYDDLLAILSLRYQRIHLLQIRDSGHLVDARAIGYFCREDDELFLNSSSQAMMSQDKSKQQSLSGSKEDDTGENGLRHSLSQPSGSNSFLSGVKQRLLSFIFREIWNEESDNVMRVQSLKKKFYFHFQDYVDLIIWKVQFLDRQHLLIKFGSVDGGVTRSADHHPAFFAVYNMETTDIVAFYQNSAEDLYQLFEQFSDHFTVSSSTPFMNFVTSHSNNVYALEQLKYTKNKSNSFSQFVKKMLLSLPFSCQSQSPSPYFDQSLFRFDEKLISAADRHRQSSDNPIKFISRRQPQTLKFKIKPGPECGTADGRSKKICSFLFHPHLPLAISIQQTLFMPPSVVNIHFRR

B1: DDA1 fused to the binding domain of GAL4 (pGBKT7-DDA1) (other)
chain: MKLLSSIEQACDICRLKKLKCSKEKPKCAKCLKNNWECRYSPKTKRSPLTRAHLTEVESRLERLEQLFLLIFPREDLDMILKMDSLQDIKALLTGLFVQDNVNKDAVTDRLASVETDMPLTLRQHRISATSSSEESSNKGQRQLTVSMASILGDLPSFDPHNFSQHRPSDPSNPSKMVPTTYRPTHNRTLPPPDQVITTEVKNILIRSFYQRAEEKLRPKRPATDHLAAEHVNKHFRAASSSSSTQGL
notes: Other vector-encoded residues of pGBKT7 are not described; also called AtDDA1; DET1-, DDB1-Associated 1

Columns and labels:
[1] = target: B1; test: yeast two-hybrid
Procedure: (§1) (A) Y187 yeast cells transformed with pGBKT7-DDA1 were used to screen a cDNA library prepared from Arabidopsis seedlings in the pGADT7 vector and transformed into AH109 cells. Positive clones included truncated versions of ABA receptors PYL4 and PYL9. Yeast clones were grown in selective media containing different concentrations of 3AT (ranging 0.5 to 5 […]). Empty pGADT7 vector was used as negative control. (B-C) DDA1 interaction with full length PYL8 (B), PYL4, PYL5, PYL6 or PYL9 (C) was assessed using yeast two hybrid experiments as in (A). Physical association between PYL8 and other components of the CDD complex (DDB1a, DDB1b, DET1 and COP10) was also tested (B).
(§2) The molecular basis of DDA1 activity is unknown. To get insights into its mechanism of action, we searched for proteins that interact with DDA1. With this aim, we conducted a yeast two-hybrid screen using DDA1 as bait. Thus, the full-length coding sequence of DDA1 fused to the binding domain of GAL4 was used to screen a cDNA library prepared from Arabidopsis seedlings. From over 15 million clones screened, 200 were identified as potential DDA1 interactors. Among them, 20 were subsequently confirmed by retransformation into yeast. […] We aimed to determine whether DDA1 interacts with full length PYL4 and PYL9 and with other Arabidopsis PYR/PYL/RCAR family members using yeast two hybrid assays.
(§3) The full length DDA1 cDNA was cloned into the pGBKT7 (Gal4 DNA binding domain, BD; Clontech). […] To confirm protein interactions, plasmids were co-transformed into Saccharomyces cerevisiae AH109 cells, following standard heat-shock protocols (Chini et al., 2007).

YFPN:PYL8 = target: T1, YFPN:PYL8; test: BiFC in N. benthamiana epidermal cells
Procedure: To confirm that DDA1 and PYL8 interact in planta, we performed bimolecular fluorescence complementation (BiFC) assays. N. benthamiana leaves were coinfiltrated with Agrobacterium tumefaciens cells to express DDA1 and PYL8 fusions with the Nor C-portions of the yellow fluorescent protein (YFP). The infiltrated leaves were analyzed under the confocal fluorescence microscope 3 d after infiltration.
YFPN:PYL8/DDA1:YFPC were co-infiltrated into the abaxial surface of 3-week-old N. benthamiana plants as described (Voinnet et al., 2003). The p19 protein was used to suppress gene silencing. The empty vectors were used as negative controls. Fluorescence was visualized in epidermal cells of leaves after 3 d of infiltration using a Leica sp5 confocal microscope. Nuclei were visualized after submerging the leaves in a DAPI solution (1 μg mL-1 DAPI in 100 mM phosphate buffer, 0.5% Triton X-100).

full length PYL8 = target: T2, full length PYL8; test: yeast two-hybrid (FIG. 4B)
Procedure: as §1
The full length DDA1 cDNA was cloned into the pGBKT7 (Gal4 DNA binding domain, BD; Clontech). […] To confirm protein interactions, plasmids were co-transformed into Saccharomyces cerevisiae AH109 cells, following standard heat-shock protocols (Chini et al., 2007). Successfully transformed colonies were identified on yeast synthetic drop-out lacking Leu and Trp; these colonies were resuspended in water and transferred to selective media lacking Ade, His, Leu and Trp. Plates without His were supplemented with different concentrations of 3-amino 1,2,4-triazole (3AT; ranging 0.5-10 mM). Yeast cells were incubated at 30° C. during 6 days. Empty vectors were co-transformed as negative controls. To test the DDA1 interaction with specific DDB1a domains, DDB1a truncated versions were generated and cloned into the pGADT7 vector as follows: BPA (aa 16-350), BPB (aa 387-704), BPA+BPB (aa 16-704), BPC (aa 704-1002) and BPB+BPC (aa 350-1002). Full length DDB1a was used as a positive control.

DET1 = target: T3, DET1; test: yeast two-hybrid
Procedure: as §1, §2, §3

| Binder | binding result [1] | further results |
| --- | --- | --- |
| PYL5 (receptor, Arabidopsis, UniProt Q9FLB1 1-203, looked up) MRSPVQLQHGSDATNGFHTLQPHDQTDGPIKRVCLTRGMHVPEHVAMHHTHDVGPDQCCSSVVQMIHAPPESVWALVRRFDNPKVYKNFIRQCRIVQGDGLHVGDLREVMVVSGLPAVSSTERLEILDEERHVISFSVVGGDHRLKNYRSVTTLHASDDEGTVVVESYIVDVPPGNTEEETLSFVDTIVRCNLQSLARSTNRQ | no binding |  |
| DDA1:YFPC (other, BiFC construct expressed transiently in N. benthamiana leaves; also called DDA1 fusion with the C-portion of YFP; not shown: C-portion of the yellow fluorescent protein (YFP)) MASILGDLPSFDPHNFSQHRPSDPSNPSKMVPTTYRPTHNRTLPPPDQVITTEVKNILIRSFYQRAEEKLRPKRPATDHLAAEHVNKHFRAASSSSSTQGL |  | binding result (YFPN:PYL8): binds |
| COP10 (other, Arabidopsis, UniProt Q9LJD7 1-182, looked up, Endogenous protein in the TAP; also called CONSTITUTIVE PHOTOMORPHOGENIC10) MMTPGGSGRLRPLPTAMYAGYSGTASSWVAKTSVSASGKRIQREMAELNIDPPPDCSAGPKGDNLYHWIATIIGPSGTPYEGGIFFLDIIFPSDYPFKPPKLVFKTRIYHCNVDTAGDLSVNILRDSWSPALTITKVLQAIRSIFLKPEPYSPALPVIARLYLTDREKHDEVAKEWTLRFAK | no binding | binding result (full length PYL8): no binding |
| B1 |  | binding result (DET1): no binding |
| PYL6 (receptor, Arabidopsis, UniProt Q8S8E3 1-215, looked up) MPTSIQFQRSSTAAEAANATVRNYPHHHQKQVQKVSLTRGMADVPEHVELSHTHVVGPSQCFSVVVQDVEAPVSTVWSILSRFEHPQAYKHFVKSCHVVIGDGREVGSVREVRVVSGLPAAFSLERLEIMDDDRHVISFSVVGGDHRLMNYKSVTTVHESEEDSDGKKRTRVVESYVVDVPAGNDKEETCSFADTIVRCNLQSLAKLAENTSKFS | no binding |  |
